For 1 substance, binding signal (% (reference)) results are on record in paper PMC10397344.

In the data set the test system is MLH1 wt;PMS2 wt. Nature of the data set: EMSA. As to conditions: untreated; ATP; 20 mM HEPES pH 7.5, 40 ug/ml BSA, 1 mM DTT, 100 mM NaCl, 1.5 ul of 10 mM ATP added, 95 ng DNA, on ice 5 min; 4% native PAGE, 0.5xTBE pH 7.5. On the technique in general: Mobility shift assays separate free from complexed probe on a gel.

The substance GT-DNA-substrate (G/T mismatch) returned a binding signal (% (reference)) of 100.
